Experimental data reported in US20120208867A1.

What was measured:
[1] = target: TLR-2 in which His-tag was added to the N-terminus (His-tag-added TLR-2); assay: pull-down of HMGB1 (2 ug) with His-tag-added TLR-2 (2 ug) on Co2+ agarose beads, Western blot with anti-HMGB1 antibody; lane '-': no tRNA, no RNA aptamer
[2] = target: TLR-2 in which His-tag was added to the N-terminus (His-tag-added TLR-2); assay: pull-down of HMGB1 (2 ug) with His-tag-added TLR-2 (2 ug) on Co2+ agarose beads, Western blot with anti-HMGB1 antibody; lane '+': tRNA added, no RNA aptamer (reference lane, set to 100)
[3] = target: TLR-2 in which His-tag was added to the N-terminus (His-tag-added TLR-2); assay: pull-down of HMGB1 (2 ug) with His-tag-added TLR-2 (2 ug) on Co2+ agarose beads, Western blot with anti-HMGB1 antibody; tRNA added, in the presence of 1 ug of RNA aptamer R8c6_1-18 as inhibitor
[4] = target: TLR-2 in which His-tag was added to the N-terminus (His-tag-added TLR-2); assay: pull-down of HMGB1 (2 ug) with His-tag-added TLR-2 (2 ug) on Co2+ agarose beads, Western blot with anti-HMGB1 antibody; tRNA added, in the presence of 2 ug of RNA aptamer R8c6_1-18 as inhibitor
[5] = target: TLR-2 in which His-tag was added to the N-terminus (His-tag-added TLR-2); assay: pull-down of HMGB1 (2 ug) with His-tag-added TLR-2 (2 ug) on Co2+ agarose beads, Western blot with anti-HMGB1 antibody; tRNA added, in the presence of 4 ug of RNA aptamer R8c6_1-18 as inhibitor
[6] = target: TLR-2 in which His-tag was added to the N-terminus (His-tag-added TLR-2); assay: pull-down of HMGB1 (2 ug) with His-tag-added TLR-2 (2 ug) on Co2+ agarose beads, Western blot with anti-HMGB1 antibody; tRNA added, in the presence of 1 ug of 40N RNA library (comparative example)
[7] = target: TLR-2 in which His-tag was added to the N-terminus (His-tag-added TLR-2); assay: pull-down of HMGB1 (2 ug) with His-tag-added TLR-2 (2 ug) on Co2+ agarose beads, Western blot with anti-HMGB1 antibody; tRNA added, in the presence of 2 ug of 40N RNA library (comparative example)
[8] = target: TLR-2 in which His-tag was added to the N-terminus (His-tag-added TLR-2); assay: pull-down of HMGB1 (2 ug) with His-tag-added TLR-2 (2 ug) on Co2+ agarose beads, Western blot with anti-HMGB1 antibody; tRNA added, in the presence of 4 ug of 40N RNA library (comparative example)

HMGB1 protein (High-mobility group box 1 protein) (ligand), sequence (P09429 whole entry): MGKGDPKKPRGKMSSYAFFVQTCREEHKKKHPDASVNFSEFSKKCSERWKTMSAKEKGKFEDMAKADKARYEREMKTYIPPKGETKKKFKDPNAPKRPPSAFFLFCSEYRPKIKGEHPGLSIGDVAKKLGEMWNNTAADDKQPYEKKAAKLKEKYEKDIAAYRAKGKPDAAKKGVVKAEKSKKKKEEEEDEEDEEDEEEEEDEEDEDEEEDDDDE
TLR-2 in which His-tag was added to the N-terminus (His-tag-added TLR-2), sequence (O60603 whole entry): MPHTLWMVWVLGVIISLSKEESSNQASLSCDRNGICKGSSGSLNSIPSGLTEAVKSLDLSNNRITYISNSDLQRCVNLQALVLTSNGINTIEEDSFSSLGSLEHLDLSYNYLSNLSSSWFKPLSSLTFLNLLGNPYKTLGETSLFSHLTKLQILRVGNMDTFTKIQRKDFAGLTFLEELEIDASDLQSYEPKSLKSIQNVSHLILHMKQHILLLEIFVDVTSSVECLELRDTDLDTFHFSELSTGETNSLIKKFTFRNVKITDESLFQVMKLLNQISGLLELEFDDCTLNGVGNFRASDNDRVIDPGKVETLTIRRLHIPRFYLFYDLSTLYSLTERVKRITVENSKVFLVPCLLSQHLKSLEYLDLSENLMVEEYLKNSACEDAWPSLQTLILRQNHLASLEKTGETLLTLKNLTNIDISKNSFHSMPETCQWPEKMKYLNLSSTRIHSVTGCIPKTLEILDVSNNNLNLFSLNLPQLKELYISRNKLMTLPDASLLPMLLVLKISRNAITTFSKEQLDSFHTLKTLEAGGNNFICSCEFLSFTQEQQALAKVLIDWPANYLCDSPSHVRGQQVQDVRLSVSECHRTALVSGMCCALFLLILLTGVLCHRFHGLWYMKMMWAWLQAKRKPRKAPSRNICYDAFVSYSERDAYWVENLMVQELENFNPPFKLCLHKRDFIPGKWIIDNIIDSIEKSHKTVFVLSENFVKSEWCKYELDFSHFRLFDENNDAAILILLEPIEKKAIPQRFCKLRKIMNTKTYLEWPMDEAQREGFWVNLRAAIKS

HMGB1/TLR-2 (HMGB1 band corrected for TLR-2, relative to lane '+' = 100) [1]: 60
HMGB1/TLR-2 (HMGB1 band corrected for TLR-2, relative to lane '+' = 100) [2]: 100
HMGB1/TLR-2 (HMGB1 band corrected for TLR-2, relative to lane '+' = 100) [3]: 113
HMGB1/TLR-2 (HMGB1 band corrected for TLR-2, relative to lane '+' = 100) [4]: 61
HMGB1/TLR-2 (HMGB1 band corrected for TLR-2, relative to lane '+' = 100) [5]: 29
HMGB1/TLR-2 (HMGB1 band corrected for TLR-2, relative to lane '+' = 100) [6]: 108
HMGB1/TLR-2 (HMGB1 band corrected for TLR-2, relative to lane '+' = 100) [7]: 84
HMGB1/TLR-2 (HMGB1 band corrected for TLR-2, relative to lane '+' = 100) [8]: 85
Substance: HMGB1 protein (High-mobility group box 1 protein) (ligand)
